{
  "source": "paper PMC1298930",
  "origin": "cited, not measured here",
  "target": "PCNA2 (Sulfolobus solfataricus) (UniProt Q97Z84)",
  "sequence (Q97Z84 whole entry)": "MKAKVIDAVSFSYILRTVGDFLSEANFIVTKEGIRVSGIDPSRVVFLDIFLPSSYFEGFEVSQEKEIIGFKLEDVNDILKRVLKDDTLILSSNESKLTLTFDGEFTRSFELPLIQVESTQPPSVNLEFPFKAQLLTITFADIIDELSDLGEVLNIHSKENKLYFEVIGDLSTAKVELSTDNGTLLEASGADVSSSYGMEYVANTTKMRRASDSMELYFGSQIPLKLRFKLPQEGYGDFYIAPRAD",
  "data": [
    {"substance": "PCNA1 (from UniProt P57766)", "values": [
      {"measurement": "Kd", "value": 0.012, "unit": "nM"}
    ]}
  ]
}
